In the test the target is FITC-BIM SAHBA2. Description: fluorescence polarisation; direct binding: FITC-BIM SAHBA2 (50 nM) with serial dilutions of full-length BAX, read at 20 min.

By EC75 is commonly meant the concentration needed for an effect of 75%. A high value points to weaker potency.

Regarding “Human, recombinant and tagless BAX (from UniProt Q07812 1-192) (natural protein)”, the 75% effect concentration (EC75) came out at 500 nM.

These data come from publication PMC8901805.
